# Experimental data from article PMC6127294, “Jungle Express is a versatile repressor system for tight transcriptional control” (Nature Communications, 2018).
# Target: the molecule itself
# Assay: crystal structure; EilR (selenomethionine-labeled) in complex with the duplexed eilOc operator oligonucleotide, 2:1 protein:DNA molar ratio; 0.1 M Li2SO4, 0.1 M MgCl2, 0.1 M HEPES pH 7.5, 20% PEG 3350, 10% hexanediol
protein,measurement,value
"EilR (natural protein, Enterobacter lignolyticus, selenomethionine-labeled protein for the EilR-eilO crystal structure, 21.6 kDa monomer; also called EilR repressor; EilR-His8 (before cleavage of the tag); source: E. coli harboring pLane-eilR, purified (His-Trap, TEV cleavage, second His-Trap flowthrough)) MGYLNREERRETIMQAAMRVALDQGFTGMTVRNIATAAGVAAGQVHHHFTSSGELKSQAFIRVIREMMDLQRLSRTAGWREQLFSALGSEDGRLEPYIRLWRQAQLLADSDPEIKSAYLLTMNLWHDEAVRIIRAGHAAGEFTLRDSAENIAWRLISLVCGLDGIYVLGMPEVDDAAFTRHLQHVIQLELFS",stoichiometry N,2
